# Measurements published in patent publication US10876130B2, “HPPD variants and methods of use” (Bayer CropScience LP, priority 2014, dated 2020).
# Several values for one entry are separate records, joined by “and”; a condition that tells them apart may be missing. Equal values may be shown once.
# B1: Axmi309H-PWG: Axmi309H protein containing E335P, G336W, and A340G; SEQ ID NO:21 (protein)
# chain: MADLYENPMGLMGFEFIEFASPTPGTLEPIFEIMGFTKVATHRSKNVHLYRQGAINLILNNEPHSVASYFAAEHGPSVCGMAFRVKDSQKAYNRALELGAQPIHIETGPMELNLPAIKGIGGAPLYLIDRFGEGSSIYDIDFVFLEGVDRNPVGAGLKIIDHLTHNVYRGRMAYWANFYEKLFNFREIRYFDIKGEYTGLTSKAMTAPDGMIRIPLNEESSKGAGQIEEFLMQFNGEGIQHVAFLTDDLVKTWDQLKKIGMRFMTAPPDTYYEMLEGRLPNHGEPVDQLQSRGILLDGASDKEDKRLLLQIFSETLMGPVFFEFIQRKGDDGFGPWNFKGLFESIERDQVRRGVLATE
# modifications: variant HPPD
# B2: PfHPPDEvo40: reference Pseudomonas fluorescens HPPD variant, SEQ ID NO:3 in Table 2 (protein)
# chain: MADLYENPMGLMGFEFIEFASPTPGTLEPIFEIMGFTKVATHRSKNVHLYRQGEINLILNNEPNSIASYFAAEHGPSVCGMAFRVKDSQKAYNRALELGAQPIHIDTGPMELNLPAIKGIGGAPLYLIDRFGEGSSIYDIDFVYLEGVERNPVGAGLKVIDHLTHNVYRGRMVYWANFYEKLFNFREARYFDIKGEYTGLTSKAMSAPDGMIRIPLNEESSKGAGQIEEFLMQFNGEGIQHVAFLTDDLVKTWDALKKIGMRFMTAPPDTYYEMLEGRLPDHGEPVDQLQARGILLDGSSVEGDKRLLLQIFSETLMGPVFFEFIQRKGDDGFGPSNFKELFESIERDQVRRGVLTAD
# modifications: variant HPPD
# B3: PfHPPDEvo41: reference Pseudomonas fluorescens HPPD variant, SEQ ID NO:4 in Table 2 (protein)
# chain: MADLYENPMGLMGFEFIEFASPTPGTLEPIFEIMGFTKVATHRSKNVHLYRQGEINLILNNEPNSIASYFAAEHGPSVCGMAFRVKDSQKAYNRALELGAQPIHIDTGPMELNLPAIKGIGGAPLYLIDRFGEGSSIYDIDFVYLEGVERNPVGAGLKVIDHLTHNVYRGRMVYWANFYEKLFNFREARYFDIKGEYTGLTSKAMSAPDGMIRIPLNEESSKGAGQIEEFLMQFNGEGIQHVAFLTDDLVKTWDALKKIGMRFMTAPPDTYYEMLEGRLPDHGEPVDQLQARGILLDGSSVEGDKRLLLQIFSETLMGPVFFEFIQRKGDDGFGPWNFAQLFESIERDQVRRGVLTAD
# modifications: variant HPPD
# Legend:
# HPPD enzymes [1] = test: pyomelanin (brown color) colorimetric assay of HPPD enzymes overexpressed in E. coli, with tembotrione; assay type: cell-based; conditions: among Axmi309H mutants
# Description: A specific, although non-limiting, type of assay that can be used to evaluate the HPPD sequences of the invention is a colorimetric assay. In this assay, a YT-broth-type culture medium with 1% agarose, 5 mM L-Tyrosine and 42 mM Succinate, which contains the selection agent for the vector pSE420 (Invitrogen, Karlsruhe, Germany) or a modified version of pSE420 (pSE420(RI)NX) is poured into deep well plates. E. coli culture in the exponentional growth phase which contains the vector pSE420-HPPDx (HPPDx means any gene coding for a putative HPPD enzyme/protein) is applied to each well.
# Enzymes with improved tolerance to TBT were identified by this approach. The three-dimensional structure of Pseudomanas HPPD was studied to identify residues in the active site that were likely to be involved in substrate binding.
# Briefly, overexpression of HPPD enzymes (in E. coli) on rich growth medium leads to the production of the compound pyomelanin. Pyomelanin is deep brown in color, therefore, inspection of HPPD enzymes grown on LB agar in a multi-well plate allows visual comparison of the enzymatic activity of HPPD enzymes. This experimental approach also allows varying concentrations of HPPD inhibitors (such as tembotrione) to be added to individual sample wells, which allows visual assessment of the tolerance of HPPD inhibitors by the randomized HPPD enzymes.
# Soybean plants = test: tolerance of soybean plants to mesotrione, spray test; assay type: in vivo
# Description: Soybean plants expressing an HPPD inhibitor tolerant enzyme of the present invention, along with a gene conferring tolerance to glyphosate and a gene conferring tolerance to glufosinate, were tested for tolerance to mesotrione. A DeVries Tracker Sprayer was calibrated prior to each spraying. The chemical formulation used for mesotrione (MST) testing was Callisto® 4 SC formulation. Spray tests were conducted using 3× the field rate (equivalent to 9 fluid ounce per acre of the same herbicide formulation that containing 40% the active ingredient (AI), mesotrione), which equals 316 grams AI per hectare. Tolerance was evaluated one week after spraying. A tolerance rating of “0” was assigned to plants that their shoot apexes, newly emerged trifoliates and some axillary buds were completely bleached. A rating of “1” was assigned to plants having slight tolerance, i.e., the newest plant shoot tissues had some green and are not bleached completely. A rating of “2” was assigned to plants showing moderate tolerance, i.e., more than 50% of the leaf area of the top three trifoliates showing no chlorosis or bleaching damage. A rating of “3” was assigned to plants showing nearly perfect tolerance, i.e., less than 10% of the leaf area showing chlorosis or very slight bleaching.
# HPPD enzymes [2] = conditions: for 125 μM HPP/500 μM HPP × 100 / 500 μM HPP, 5 μM TBT/500 μM HPP × 100: Table 3; for 125 μM HPP/500 μM HPP × 100: rate at limiting relative to high substrate; for 500 μM HPP, 5 μM TBT/500 μM HPP × 100 / 500 μM HPP + 5 μM TBT (as % of 500 μM HPP, dataset 1): rate with 5 μM tembotrione relative to rate without; for 500 μM HPP, dataset 1: enzymatic rate at high substrate (500 μM HPP), no inhibitor, measure of Vmax, E. coli extract; for 125 μM HPP (as % of 500 μM HPP, dataset 1): rate at limiting substrate relative to high substrate, measure of substrate affinity (Km); for 500 μM HPP + 5 μM TBT (as % of 500 μM HPP, dataset 1): resistance to tembotrione
# Description: The in vitro kinetic assay couples the production of Homogentisic acid with the enzyme Homogentisate 1,2-dioxygenase (HGO). HGO converts homogentisic acid to maleoacetoacetate, which is easily quantified by UV absorption at 321 nm. The assay is carried out in real-time, and product can be quantified continuously in a 96-well spectrophotometer.
# The kinetic assay was performed in two stages.
# Experimentally, the first stage enzymatic assays were performed as follows. […] The cultures were incubated at 37 degrees C. When the OD reached 0.6-0.7, the temperature was decreased to 30 degrees C. and the cultures were incubated overnight. Cultures were sampled the next afternoon for the pyomelanin assay and the remaining culture was pelleted at 6500 rpm in an SA600 rotor, the supernatant was removed, and the pellets were frozen overnight at −20 degrees Celsius or until assay.
# Just before assay, the pellets were resuspended in 1 ml of buffer (20 mM Hepes pH 7.0, 50 mM NaCl). Two ul of LYSONASE™ (Novagen) was added to each resuspended pellet, and then mixed. Two ml of buffer and 4 ul of LYSONASE™ were then added to the HGO pellet. The suspensions were incubated for 45 minutes at room temperature, and then frozen at −20 degrees for at least 1 hour. Then, the solutions were thawed at room temperature with occasional brief immersion in a 37 degree C. water bath and a little agitation. The cultures were spun down for 15 min at 14000 rpm in a Sorvall SA 600 rotor. The supernatants were carefully pipetted off the pellets (with care not to disturb the pellets), and transferred into 1 column of a 96 well plate, and 0.5 ml of buffer was added to each of the samples and pipetted up and down to mix. The HGO supernatant was collected and the reactions were performed in the following order. The HGO was added to the 500 μM HPP solution and the 500 μM solution+5 μM TBT. Immediately 100 ul of the 500 μM HPP solution was pipetted into even-numbered rows (5 reps) and 100 ul of the 500 μM HPP+5 μM TBT solution was pipetted into odd-numbered rows (5 reps). The reactions were divided between two 96-well plates to allow a sufficient number of samples to be analyzed (4 assays total in one 96-well plate, and 6 in another). Then, 100 ul of the enzyme solutions or buffer was pipetted first into a row of wells containing 500 μM HPP+5 μM TBT followed by gentle mixing by stirring with the pipette tips, and next into a row of wells containing 500 μM HPP followed by gentle mixing by stirring with the pipette tips. Product formation was measured by absorbance at 321 nm at 5 sec intervals. The reduced values (equivalent to the absorbance change over 50 sec, and calculated as OD/min) were analyzed. Five sets of data were collected. This was then repeated after addition of the HGO to the 125 μM HPP, using the same steps as above.
# The enzymatic assay for each protein at 500 μM HPP is shown as milliOD units/minute, while the relative activity at 500 μM HPP+5 μM TBT, and also 125 μM HPP, are shown as a percentage of the activity at 500 μM HPP.
Molecule,tolerance to tembotrione in the brown color assay (HPPD enzymes [1]),"number of plants with tolerance rating 1 (Soybean plants; same spray test, 1 = slight tolerance, newest shoot tissues had some green)","number of plants with tolerance rating 2 (Soybean plants; same spray test, 2 = moderate tolerance, more than 50% of leaf area of top three trifoliates without chlorosis or bleaching)","number of plants with tolerance rating 3 (Soybean plants; same spray test, 3 = nearly perfect tolerance, less than 10% of leaf area showing chlorosis or very slight bleaching)","number of plants with tolerance rating 0 (Soybean plants; soybean expressing the clone, mesotrione (Callisto 4 SC) 316 grams AI per hectare (3× field rate), one week after spraying, 0 = completely bleached)",125 μM HPP/500 μM HPP × 100 (HPPD enzymes [2]),"500 μM HPP, 5 μM TBT/500 μM HPP × 100 (HPPD enzymes [2])","500 μM HPP, dataset 1 (HPPD enzymes [2])","125 μM HPP (as % of 500 μM HPP, dataset 1) (HPPD enzymes [2])","500 μM HPP + 5 μM TBT (as % of 500 μM HPP, dataset 1) (HPPD enzymes [2])"
B1,most tolerant to tembotrione,18,23,12,5,,,,,
B2,,,,,,57,44,16 milliOD units/minute and 19 milliOD units/minute,61% and 65%,42% and 65%
B3,,,,,,50,39,64 milliOD units/minute and 73 milliOD units/minute,34% and 54%,28% and 52%
